Experimental data taken from patent US20180036405A1 (Regeneron, published 2018).
Changes are numbered by the printed parent chain. In names and notes the source's numbering stands.

B1: H1H102N (antibody, human IgG1, V domains shown)
VH: QVQLQESGPGLVQPSQTLSLTCTVSGGSVSSGDYYWSWIRQHPGKGLEWIGHIYYSGITYYNPSLESRVTITLDTSKNQFSLNLRSVTAADTAVHYCARTAIIGTMDNWGRGTLVTVSS
VL: EIVMTQSPATLSVSPGERATLSCRASQSVSSNLAWYQQKPGQAPRLLIYDASTRATGFPARFSGSGSGTEFTLTISSLQSEDFAVYYCQQYNTWWTFGQGTKVEIK
notes: Tested in human IgG1 Fc format (H1H); also called H1M102N
B2: H1H116N (antibody, human IgG1, V domains shown)
VH: QVQLQESGPGLVKPSQTLSLTCTVSGGSVSSGDYYWSWIRQHPGKGLDWIGHIYYSGSTYYNPSLKSRVTISLDTSKNQFSLKLNSVTAADTAVYYCARTAITGTMDYWGQGTLVTVSS
VL: B1 VL with P15A, Y36F, F58I, T74I, V85L, T93S
notes: Tested in human IgG1 Fc format (H1H); also called H1M116N
B3: H1H151P (antibody, human IgG1, V domains shown)
VH: QVQLQESGPGLVNPSQTLSLTCTVSGGSINSGDYYWSWVRQHPGKGLEWIGYIYYSGSTYYNPSLKSRVTISVDTSKNQFSLKLSSVTVADTAVYYCARVGYSKGYFDSWGQGTLVTVSS
VL: DIQMTQSPSTLSASVGDRVTITCRASESISSWLAWYQQKPGKAPKVLIYDASSLESGVPSRFSGSGSGTEYTLTISSLQPDDFASYYCQQYKSYWTFGQGTKVEIK
notes: Human IgG1 Fc (H1H)
B4: H1H147P (antibody, human IgG1, V domains shown)
VH: EVQLVESGPGLVQPSQTLSLTCTVSGGSINSGDFYWSWIRQHPGKGLEWIGHIYYSGITYYSPSLKSRLTISVDTSKNQFSLKLSSVTAADTAVYYCARKRVTGEVDYWGQGTLVTVSS
VL: DIQMTQSPSSLSASVGDRITITCQANQDINNYLNWYQQKPGKAPKLLISDASNLETGVPSRFSGSGSGTDFTFTISSLQPEDIATYYCQQYDNLPPTFGQGTRLEIKR
notes: Human IgG1 Fc (H1H)
B5: H1H142P (antibody, human IgG1, V domains shown)
VH: QVQLQESGPGLVKPSQTLSLTCTVSGGSISSGDYYWNWIRQYPGKGLELIGYIYYSGITYYNPSLKSRLTISLDTSKNQFSLKLSSVTAADTAVYYCARDRVELRAFDIWGQGTMVTVSS
VL: DIQMTQSPSSLSASIGDRITISCQASQDINNYLNWYQQKPGKAPKLLIYDASNLETGIPSRFSGSGSGTDFTFTISGLQPEDIATYYCQHYDSLPLTFGQGTRLEIK
notes: Human IgG1 Fc (H1H)
B6: H1H144P (antibody, human IgG1, V domains shown)
VH: QVQLQESGPGLVMPSQTLSLTCTVSGGSINSGDYYWNWIRQHPGKGLEWIGYIYYSEISYHNPSLKSRVTTSIDTSTNQFSLKLSSVTAADTAVYYCARDRVELRAFDIWGQGTMVTVSS
VL: B5 VL with I15V, I19V, S22T, N30S, I58V, G77S
notes: Human IgG1 Fc (H1H)
B7: H1H143P (antibody, human IgG1, V domains shown)
VH: B6 VH
VL: B5 VL with I15V, I19V, S22T, N30S, I58V, G77S
notes: Human IgG1 Fc (H1H)
B8: H1H141P (antibody, human IgG1, V domains shown)
VH: B5 VH
VL: B5 VL with I15V, I19V, S22T, N30S, Y49N, I58V, G77S
notes: Human IgG1 Fc (H1H)
B9: H1H134P (antibody, human IgG1, V domains shown)
VH: EVQLVESGGGLVQPGGSLRLSCAASGFTFDDFAIHWVRQTPGRGLEWVSGLSWNSAYIAYADSVKGRFTISRDNAKDSLYLQMNSLRPEDTALYYCVKDTDIHLWFLFDFWGQGTLVTVSS
VL: not shown
notes: Human IgG1 Fc (H1H)
B10: H1H0085N (antibody, V domains shown)
VH: EVQLVESGGGLVQPGRSLRLSCAASGFTFDDYAMHWVRQAPGKGLEWVSGINWNSDKIAYADSVKGRFTISRDNAENSLFLQMNSLRPEDTALYYCVKRGDFWTEYYDYWGQGTLVTVSS
VL: DIVMTQSPLSLPVTPGEPASISCRSSQSLLHSNGYNYLDWYLQKPGQSPHLLIYLVSTRASGVPDRFSGSGSGTDFTLKISRVEAEDVGVYYCIQALQTPWTFGQGTKVEIK
notes: Tested in human IgG1 Fc format (H1H prefix); first obtained as H1M (mouse IgG1 Fc) from a hybridoma; also called H1M085N; H1H085N
B11: H1H103N (antibody, human IgG1, V domains shown)
VH: EVQLVESGGGLVQPGGSLRLSCAASGFTFSSYDMHWVRQTTGKGLEWVSGIGTAGDTYYPGSVKGRFTISREDAKNSLYLQMNSLRAGDTAVYYCARVGYDWNFVAFDYWGQGTLVTVSS
VL: B10 VL with H50Q, Y54H, T58I, V90I, I94M
notes: Tested in human IgG1 Fc format (H1H); also called H1M103N
B12: H1H086N (antibody, human IgG1, V domains shown)
VH: B10 VH with E105D
VL: B10 VL with I94M
notes: Tested in human IgG1 Fc format (H1H); also called H1M086N
B13: H1H089N (antibody, human IgG1, V domains shown)
VH: B10 VH with E105D
VL: B10 VL with Y35H, T58N
notes: Tested in human IgG1 Fc format (H1H); also called H1M089N

Columns and labels:
[1] = molecular target: T1, EGFR on A431 epidermoid carcinoma cells (human, UniProt P00533 25-1210); experiment: cell-based or functional assay
[2] = molecular target: T2, human dimeric EGFR (EGFR.mFc) (human); experiment: SPR 37C, mAb captured by anti-human Fc, EGFR.mFc analyte
T2 construct: Soluble dimeric EGFR construct
Protocol: (§1) Different concentrations of human monomeric (EGFR.mmh; SEQ ID NO:386) and dimeric (EGFR.mFc; SEQ ID NO:387) proteins were injected over the anti-EGFR monoclonal antibody captured surface at a flow rate of 50 μI/min. Antibody-antigen association was monitored for 4-5 minutes while dissociation of antigen from the captured monoclonal antibody surface was monitored for 10 min. Kinetic association (kₐ) and dissociation (kd) rate constants were determined by processing and fitting the data to a 1:1 binding model using Scrubber 2.0 curve fitting software.

[3] = molecular target: T3, human monomeric EGFR (EGFR.mmh) (human, UniProt P00533 25-647); experiment: SPR 37C, mAb captured by anti-human Fc, EGFR.mmh analyte
T3 construct: Soluble monomeric EGFR construct
Protocol: as §1

[4] = molecular target: T1, EGFR on A431 epidermoid carcinoma cells; experiment: cell-based or functional assay; remark: listed apart in the source

Row | Binder | ADCC EC50 [1] [Molar] | Maximum Cell Killing (%) [1] [%] | Kd [2] [pM] | koff [2] [s⁻¹] | kon [2] [M⁻¹ s⁻¹] | t1/2 [2] [min] | Kd [3] [pM] | koff [3] [s⁻¹] | kon [3] [M⁻¹ s⁻¹] | t1/2 [3] [min] | IC50 of A431 Proliferation [4] [Molar]
1 | B1 | 4.39e-13 | 48 | 65.1 | 5.62e-05 | 863000 | 206 | 5670 | 0.000943 | 166000 | 12 | 2.88e-10
2 | B2 | 2.51e-13 | 29 | 20.3 | 3.16e-05 | 1.55e+06 | 366 | 5270 | 0.00284 | 539000 | 4 | 2.24e-10
3 | B3 | 5.48e-09 | 68 |  |  |  |  | 8400 | 0.00113 | 134000 | 10 | 2.77e-10
4 | B4 |  | 13 | 66.4 | 1.26e-05 | 190000 | 914 | 5760 | 0.000376 | 65400 | 31 | 9.77e-11
5 | B5 | 1.19e-12 | 34 | 33.2 | 1.2e-05 | 361000 | 965 | 4350 | 0.000689 | 158000 | 17 | 5.47e-10
6 | B6 | 4.57e-11 | 43 | 21.7 | 1.94e-05 | 894000 | 596 | 5250 | 0.000967 | 184000 | 12 | 1.39e-11
7 | B7 |  | 13 | 35.4 | 1.35e-05 | 381000 | 856 | 5710 | 0.000727 | 127000 | 16 | 9.97e-11
8 | B8 | 2.78e-12 | 41 | 8.31 | 7.51e-06 | 903000 | 1540 | 1020 | 0.000405 | 396000 | 29 | 1.41e-10
9 | B9 | 4.61e-11 | 33 | 7.99 | 2.47e-05 | 3.09e+06 | 468 | 848 | 0.000789 | 930000 | 15 | 1.84e-09
10 | B10 | 3.7e-13 | 35 | 120 | 4.05e-05 | 336000 | 286 | 15500 | 0.00185 | 119000 | 6 | 1.65e-09
11 | B11 | 7.25e-13 | 17 | 109 | 4.19e-05 | 383000 | 276 | 13900 | 0.00139 | 100000 | 8 | 3.89e-09
12 | B12 | 2.91e-13 | 25 | 5.98 | 1.13e-05 | 1.9e+06 | 1020 | 1310 | 0.000708 | 540000 | 16 | 5.46e-10
13 | B13 | 5.83e-12 | 53 | 30.1 | 4.49e-05 | 1.49e+06 | 257 | 21800 | 0.00683 | 313000 | 2 | 2.3e-09
